Experiment [1] addresses T1, recombinant human IL1RAP ECD (human, UniProt Q9NPH3 21-367).
T1 construct: His-tagged; also called hIL1RAP-ECD; rhuIL1RAP
T1 sequence: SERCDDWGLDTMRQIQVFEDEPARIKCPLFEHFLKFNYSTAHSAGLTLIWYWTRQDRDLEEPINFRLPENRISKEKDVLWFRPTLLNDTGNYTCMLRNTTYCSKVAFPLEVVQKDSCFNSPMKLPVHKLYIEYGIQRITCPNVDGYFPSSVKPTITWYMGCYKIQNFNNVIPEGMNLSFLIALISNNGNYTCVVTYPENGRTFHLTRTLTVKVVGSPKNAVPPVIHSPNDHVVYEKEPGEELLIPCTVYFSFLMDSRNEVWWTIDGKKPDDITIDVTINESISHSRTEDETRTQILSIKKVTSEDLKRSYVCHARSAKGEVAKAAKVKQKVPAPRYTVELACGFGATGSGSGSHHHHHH
Nature of the experiment: SPR, summary.

The target of experiment [2] is T1, recombinant human IL1RAP ECD. In words: SPR (ProteOn).
Experiment [3] concerns the target T2, cyno IL1RAP ECD displayed on HEK-293F cells (pDisplay) (cynomolgus monkey, UniProt P59822 21-367 (rhesus entry)).
T2 sequence: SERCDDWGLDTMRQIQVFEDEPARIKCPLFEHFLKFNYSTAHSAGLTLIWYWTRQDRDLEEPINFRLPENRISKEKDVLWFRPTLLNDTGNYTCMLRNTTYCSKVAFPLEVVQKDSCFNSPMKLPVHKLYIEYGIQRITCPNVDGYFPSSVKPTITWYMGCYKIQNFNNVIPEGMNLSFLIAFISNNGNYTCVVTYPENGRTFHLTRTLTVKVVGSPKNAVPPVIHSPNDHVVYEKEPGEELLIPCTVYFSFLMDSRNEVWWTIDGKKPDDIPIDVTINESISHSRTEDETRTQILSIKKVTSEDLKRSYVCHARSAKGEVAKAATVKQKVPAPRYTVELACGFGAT
In words: HEK-293F cells (MSD).

For experiment [4], the target named is T1, recombinant human IL1RAP ECD. In words: SPR (ProteOn). This is another data set of the same source.
Experiment [5] shares this target. Nature of the experiment: SPR; KD against parent IAPB4. Background: In SPR one partner is held on a chip, and binding of the other changes the refractive index at the surface.
Experiment [6] addresses T3, recombinant cyno IL1RAP ECD (cynomolgus monkey, UniProt P59822 21-367 (rhesus entry)).
T3 construct: also called rcynoIL1RAP
T3 sequence: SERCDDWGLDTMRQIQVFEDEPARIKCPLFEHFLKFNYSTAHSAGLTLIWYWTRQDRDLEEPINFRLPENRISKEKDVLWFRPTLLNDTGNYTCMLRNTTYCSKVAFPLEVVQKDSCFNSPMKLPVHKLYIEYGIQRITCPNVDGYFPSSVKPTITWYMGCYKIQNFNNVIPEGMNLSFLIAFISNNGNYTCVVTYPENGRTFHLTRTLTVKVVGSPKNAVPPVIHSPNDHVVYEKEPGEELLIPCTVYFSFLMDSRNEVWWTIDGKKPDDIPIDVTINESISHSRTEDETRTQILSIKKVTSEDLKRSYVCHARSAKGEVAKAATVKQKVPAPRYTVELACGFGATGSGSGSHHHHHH
In words: recombinant protein.

Experiment [7] has as its target T4, rat IL1RAP ECD displayed on HEK-293F cells (pDisplay) (rat, UniProt Q63621 21-367).
T4 sequence: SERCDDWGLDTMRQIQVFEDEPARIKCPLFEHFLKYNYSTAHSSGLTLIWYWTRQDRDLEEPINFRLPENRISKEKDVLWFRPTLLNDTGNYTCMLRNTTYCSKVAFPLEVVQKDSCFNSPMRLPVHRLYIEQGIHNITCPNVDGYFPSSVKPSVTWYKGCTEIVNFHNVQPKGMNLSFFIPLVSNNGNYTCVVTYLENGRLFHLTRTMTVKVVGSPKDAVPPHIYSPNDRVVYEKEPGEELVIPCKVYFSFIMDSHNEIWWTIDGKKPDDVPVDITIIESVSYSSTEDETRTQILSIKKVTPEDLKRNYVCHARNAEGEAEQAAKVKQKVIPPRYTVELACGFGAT
In words: HEK-293F cells (MSD).

The target of experiment [8] is T5, human IL1RAP ECD displayed on HEK-293F cells (pDisplay) (human, UniProt Q9NPH3 21-367).
T5 construct: also called Human clone HE2 IL1RAP FL-ECD cell line
T5 sequence: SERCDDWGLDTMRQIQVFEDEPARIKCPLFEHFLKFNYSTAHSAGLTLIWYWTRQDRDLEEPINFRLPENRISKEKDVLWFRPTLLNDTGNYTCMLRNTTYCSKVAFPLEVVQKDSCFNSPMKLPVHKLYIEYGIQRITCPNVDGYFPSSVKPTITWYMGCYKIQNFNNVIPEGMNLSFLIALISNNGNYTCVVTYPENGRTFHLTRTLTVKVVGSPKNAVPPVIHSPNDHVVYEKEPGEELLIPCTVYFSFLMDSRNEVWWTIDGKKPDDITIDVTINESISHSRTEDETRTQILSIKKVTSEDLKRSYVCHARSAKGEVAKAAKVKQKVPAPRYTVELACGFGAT
Nature of the experiment: HEK-293F cells (MSD).

Experiment [9] deals with T6, mouse IL1RAP ECD displayed on HEK-293F cells (pDisplay) (mouse, UniProt Q61730 21-367).
T6 sequence: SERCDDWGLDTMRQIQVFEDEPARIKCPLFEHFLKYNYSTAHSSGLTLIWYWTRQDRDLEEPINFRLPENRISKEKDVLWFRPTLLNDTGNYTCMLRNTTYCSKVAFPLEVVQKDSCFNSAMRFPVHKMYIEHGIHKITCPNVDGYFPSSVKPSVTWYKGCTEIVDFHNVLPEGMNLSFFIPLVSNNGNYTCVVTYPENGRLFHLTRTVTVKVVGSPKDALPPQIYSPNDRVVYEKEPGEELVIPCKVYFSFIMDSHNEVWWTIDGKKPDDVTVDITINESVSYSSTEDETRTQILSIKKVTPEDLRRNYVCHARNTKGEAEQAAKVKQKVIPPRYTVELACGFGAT
Nature of the experiment: HEK-293F cells (MSD).

Like-named read-outs stand apart in the source and are kept apart here.

B1: IAPB04 (antibody, human IgG4 S228P, kappa, F234A L235A, V domains shown)
VH: QVQLVQSGAEVKKPGSSVKVSCKASGGTFSSYAISWVRQAPGQGLEWMGGISAIFGTANYAQKFQGRVTITADESTSTAYMELSSLRSEDTAVYYCARHLHNGIHLDYWGQGTLVTVSS
VL: EIVLTQSPATLSLSPGERATLSCRASQSVSNFLAWYQQKPGQAPRLLIYGASNRATGIPARFSGSGSGTDFTLTISSLEPEDFAVYYCQQGKHWPWTFGQGTKVEIKR
notes: IgG4-PAA; also called IAPB4; phage hit B4
Broadly, the Kd is a measure of binding affinity in units of concentration. What is called koff is the rate constant with which the complex falls apart. Usually kon stands for a measure of how fast the partners come together. Turning to B1, the dissociation constant Kd worked out at 5.66 nM in [1], 4.73 nM in [2] and 5.66 nM in [4]. The figures for the koff in experiment [2] and in experiment [4] were 0.0014 s⁻¹ and 0.00144 s⁻¹, respectively. Moreover, the kon in experiment [2] stood at 295000 M⁻¹ s⁻¹; in [4], 255000 M⁻¹ s⁻¹. Further, the binding result in [3] and in experiment [6] was “binds” each time. Also, in experiment [5], the “Fold Different from parent” value stood at 1 fold.

B2: IAPB38 (antibody, human IgG4 S228P, kappa, F234A L235A, V domains shown)
VH: EVQLLESGGGLVQPGGSLRLSCAASGFTFSNYAMNWVRQAPGKGLEWVSGINYGGGSKYYADSVKGRFTISRDNSKNTLYLQMNSLRAEDTAVYYCAKDYGPFALDYWGQGTLVTVSS
VL: EIVLTQSPATLSLSPGERATLSCRASQSVDDWLAWYQQKPGQAPRLLIYTASNRATGIPARFSGSGSGTDFTLTISSLEPEDFAVYYCQQYHHWPLTFGQGTKVEIKR
notes: IgG4-PAA; whole chains
Turning to B2, the binding result in [3], in experiment [7], in experiment [8], in experiment [9] and in [6] was “binds” in each case.

B3: IAPB62 (antibody, human IgG4 S228P, kappa, F234A L235A, V domains shown)
VH: QVQLVQSGSELKKPGASVKVSCKASGYTFNTYAMNWVRQAPGQGLEWMGWINTNTGNPTYAQGFTGRFVFSLDTSVSTAYLQISSLKAEDTAVYYCARRYFDWLLGAFDIWGQGTMVTVSS
VL: DIQMTQSPSSVSASVGDRVTITCRASQGISSWLAWYQQKPGKAPKLLIYAASSLQSGVPSRFSGSGSGTDFTLTISSLQPEDFATYYCQQANSFPLTFGGGTKVEIKR
notes: IgG4-PAA; whole chains
As to B3, the binding result in experiment [3], in [8] and in [6] was “binds” in each case.

For the origin of these results see US20190270826A1 (Janssen / Centocor, published 2019).
